# Measured values reported in article PMC2824762, “Analysis of the role of PCNA-DNA contacts during clamp loading” (BMC Structural Biology, 2010).
# B1: S. cerevisiae Proliferating Cell Nuclear Antigen (PCNA), wild type (natural protein)
# chain: MLEAKFEEASLFKRIIDGFKDCVQLVNFQCKEDGIIAQAVDDSRVLLVSLEIGVEAFQEYRCDHPVTLGMDLTSLSKILRCGNNTDTLTLIADNTPDSIILLFEDTKKDRIAEYSLKLMDIDADFLKIEELQYDSTLSLPSSEFSKIVRDLSQLSDSINIMITKETIKFVADGDIGSGSVIIKPFVDMEHPETSIKLEMDQPVDLTFGAKYLLDIIKGSSLSDRVGIRLSSEAPALFQFDLKSGFLQFFLAPKFNDEE
# notes: PCNA, S. cerevisiae; The subunit-with-subunit row from the single-chain PCNA structure is also written on this molecule; also called wild-type PCNA; yeast PCNA; source: E. coli BL21(DE3), purified (HisTrap FF, PreScission protease, HiTrap Q HP); not shown: His6, N-terminal, cleaved
# B2: DNA-30 (dsDNA)
# DNA 1: GAGCATTCAAGGACTTAGGTCTGTATTTATCTACCCACAA
# DNA 2: TTGTGGGTAGATAAATACAGACCTAAGTCC
# B3: crystallization primer-template DNA (dsDNA)
# DNA 1: TTTTATACGATGGG
# DNA 2: CCCATCGTAT
# B4: DNA-13 (dsDNA)
# DNA 1: GAGCATTCAAGGACTTAGGTCTG
# DNA 2: CAGACCTAAGTCC
# How the values were obtained:
# [1] = target: the molecule itself; test: crystal structure; single-chain PCNA (three subunits joined on one chain) with a 10-base pair DNA; hanging drop, 100 mM Na acetate pH 4.6, 100 mM NaCl, 14% PEG 4K, 20°C; space group P2(1)2(1)2(1); 3.0 Å
# [2] = target: T1, RFC (Replication Factor C clamp loader);PCNA wild-type (Saccharomyces cerevisiae;Saccharomyces …, UniProt P38630;P40348;P38629;P40339;P38251;P15873 1-861;1-353;2-340;1-323;1-354;1-258, |); test: fluorescence anisotropy; RFC titrated; 1 uM PCNA, 1 mM ATPgS, 10 mM MgCl2; Anisotropy: 30 mM Tris pH 7.5, 200 mM NaCl, 2 mM DTT, 1 mM ATPgS, 10 mM MgCl2, 100 nM TAMRA-DNA, 1 uM PCNA, 25 C. Crystals: 100 mM Na acetate pH 4.6, 100 mM NaCl, 14% PEG 4K, 20 C; settings: protein: recombinant;recombinant; tags: ;N-terminal 6-His, PreScission-cleaved; copies: 1;1;1;1;1;3; label: TAMRA at 5' end of template strand; 5' overhang 10 nt on template (3' recessed primer), 30 bp duplex
# [3] = target: T2, RFC (Replication Factor C clamp loader);PCNA K20A/K77A/R80A/R149A (Saccharomyces cerevisiae;Saccharomyces …, UniProt P38630;P40348;P38629;P40339;P38251;P15873 1-861;1-353;2-340;1-323;1-354;1-258, |K20A;K77A;R80A;R149A); test: fluorescence anisotropy; RFC titrated; 1 uM mutant PCNA, 1 mM ATPgS, 10 mM MgCl2; Anisotropy: 30 mM Tris pH 7.5, 200 mM NaCl, 2 mM DTT, 1 mM ATPgS, 10 mM MgCl2, 100 nM TAMRA-DNA, 1 uM PCNA, 25 C. Crystals: 100 mM Na acetate pH 4.6, 100 mM NaCl, 14% PEG 4K, 20 C; settings: protein: recombinant;recombinant; tags: ;N-terminal 6-His, PreScission-cleaved; copies: 1;1;1;1;1;3; label: TAMRA at 5' end of template strand; 5' overhang 10 nt on template (3' recessed primer), 30 bp duplex
# [4] = target: single-chain PCNA (three fused PCNA subunits) (Saccharomyces cerevisiae, UniProt P15873;P15873;P15873 1-257;2-257;2-258, R110S;Y114S); test: X-ray crystallography; 3.0 A; DNA tilted ~40 deg, partly disordered, refined as rigid body; pH 4.6; Anisotropy: 30 mM Tris pH 7.5, 200 mM NaCl, 2 mM DTT, 1 mM ATPgS, 10 mM MgCl2, 100 nM TAMRA-DNA, 1 uM PCNA, 25 C. Crystals: 100 mM Na acetate pH 4.6, 100 mM NaCl, 14% PEG 4K, 20 C; settings: protein: recombinant; tags: N-terminal 6-His, PreScission-cleavable; copies: 1;1;1; label: Cy5 at 5' end of primer strand; 5' overhang 4 nt on template, 10 bp duplex
# single-chain PCNA (three fused PCNA subunits), sequence (P15873 2-257 R110S/Y114S, one chain of several): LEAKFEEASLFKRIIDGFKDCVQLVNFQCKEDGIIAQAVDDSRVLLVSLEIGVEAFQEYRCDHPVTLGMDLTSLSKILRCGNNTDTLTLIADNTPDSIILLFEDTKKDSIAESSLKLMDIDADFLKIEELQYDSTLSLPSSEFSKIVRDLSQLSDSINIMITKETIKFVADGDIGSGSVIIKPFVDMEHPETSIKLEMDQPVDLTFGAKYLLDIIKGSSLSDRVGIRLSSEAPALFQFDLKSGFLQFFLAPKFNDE
# [5] = target: T1, RFC (Replication Factor C clamp …); test: fluorescence anisotropy; RFC titrated; 1 uM PCNA, 1 mM ATPgS, 10 mM MgCl2; Kd only in figure; Anisotropy: 30 mM Tris pH 7.5, 200 mM NaCl, 2 mM DTT, 1 mM ATPgS, 10 mM MgCl2, 100 nM TAMRA-DNA, 1 uM PCNA, 25 C. Crystals: 100 mM Na acetate pH 4.6, 100 mM NaCl, 14% PEG 4K, 20 C; settings: protein: recombinant;recombinant; tags: ;N-terminal 6-His, PreScission-cleaved; copies: 1;1;1;1;1;3; label: TAMRA at 5' end of template strand; 5' overhang 10 nt on template (3' recessed primer), 13 bp duplex
# [6] = target: T2, RFC (Replication Factor C clamp …); test: fluorescence anisotropy; RFC titrated; 1 uM mutant PCNA, 1 mM ATPgS, 10 mM MgCl2; affinity changes little vs wild-type PCNA; Kd only in figure; Anisotropy: 30 mM Tris pH 7.5, 200 mM NaCl, 2 mM DTT, 1 mM ATPgS, 10 mM MgCl2, 100 nM TAMRA-DNA, 1 uM PCNA, 25 C. Crystals: 100 mM Na acetate pH 4.6, 100 mM NaCl, 14% PEG 4K, 20 C; settings: protein: recombinant;recombinant; tags: ;N-terminal 6-His, PreScission-cleaved; copies: 1;1;1;1;1;3; label: TAMRA at 5' end of template strand; 5' overhang 10 nt on template (3' recessed primer), 13 bp duplex
binder,measurement,setting,value
B1,stoichiometry N,[1],3
B2,Kd,[2],~100 nM
same,binding signal,[3],~5 fold weaker Kd than with wild-type PCNA (nearly 5)
B3,binding result,[4],binds
B4,binding result,[5],binds
same,binding result,[6],binds
